# Source: article PMC8317047, “Characterisation of a hyperthermophilic transketolase from Thermotoga maritima DSM3109 as a biocatalyst for 7-keto-octuronic acid synthesis” (Organic & Biomolecular Chemistry, 2021)
# B1: TKtmar (Thermotoga maritima MSB8) (protein)
# chain: MERFPYEKLPESELKELKELGRLCRGDILKMTYIANSGHPGGSMSSIDLYLTVFKYAKLRPVDDPARDRIVISHGHTSPGVYAAMARLGFVDLDEVLAGFRHPASVFEGHVTRGVGIIDWTTGNLGQGLSAGLGFALASRFTGKDYHVFVLMSDAEQAKGQVAEARRVAKKYGVTNLTVIIDYNDAQISGRARDVMPVNIKENYLADGWRVIEIDGHDYEQIYLALKEAVEDELNPVAIIAKTVMGKGVSFMENEVKYHGKPLNREELEKALAELGIENDVDVYIEKRKQLPVEKHKKVYKTYPIKIDTGEPITYTSPTDNRSAFGKAILDLVKKNVNNPETTPIVAVDCDLKGSVKLDLLDKEFPERLLEVGVQEHNAAAMAGALSAEGVITFFADFGVFGISETYNQHRLNAINGTNLKVVVTHCGLNVGEDGKTHHGLDYVSGPMNWYGFKVIVPGDPNQTDRVVRYAAKEYGNFVIAMGRSKLPIILDENGKPFFGEGYTFEYGKIDVVRKGDDAVIITYGSTLCEAVNAADELKKEGVNVAVLNVSCPVDLDIETLKMVDGKPVLVVEDHNVFTGLGSFLGTTLLENGIIPKKYVRVGVPEFAVSGSYTMLYKLYGLDKDGIISRLREML
# notes: full length with C-terminal His6 tag, pET-29:SacB-SapI, E. coli BL21(DE3), Ni-NTA purified
# Columns and labels:
# purified protein [1] = substrate: O=C(O)C(=O)CO; experiment: purified protein; settings: apparent, GA constant at 50 mM, ThDP 2.4 mM, MgCl2 9 mM, TEA 2 mM pH 7, 65 °C
# purified protein [2] = substrate: O=CCO; experiment: purified protein; assay type: biochemical, Thermotoga maritima; settings: apparent, LiHPA constant at 50 mM, ThDP 2.4 mM, MgCl2 9 mM, TEA 2 mM pH 7, 65 °C
protein,measurement,setting,value
B1,Km,purified protein [1],53.8 ± 4.1 mM
same,Vmax,purified protein [1],330 µM/min
same,kcat,purified protein [1],0.77 s⁻¹
same,kcat/Km,purified protein [1],14.4 M⁻¹ s⁻¹
same,Km,purified protein [2],3.6 ± 0.4 mM
same,Vmax,purified protein [2],190 µM/min
same,kcat,purified protein [2],0.45 ± 0.03 s⁻¹
same,kcat/Km,purified protein [2],126 ± 6 M⁻¹ s⁻¹
